Assay results reported in patent US20050064507A1, “Determining kinase specificity” (priority 2003, published 2005).

Key:
Assay type in all cases: biochemical
AKT1 = target: T1, AKT1 (Homo sapiens, UniProt P31749); test: In vitro kinase assay: peptide phosphorylation by AKT1; details: normalized to best substrate
T1 construct: purchased Panvera
Method: Catalytically active preparations of the kinases of interest were either purchased or prepared. Purchased and tested active kinase preparations including the following: PKC-alpha, PKC-delta, PKC-epsilon, PKC-zeta, PKC-mu, PKA, PKG from Calbiochem, ROK alpha/ROCK-II, active from Upstate Biotechnology, and AKT1 from Panvera.
The conditions of the kinase assay and the amount of active kinase used varied with the kinase and with the accuracy needed. For a typical experiment, 5-20 ng of kinase was used per well and each peptide pool was assayed in duplicate wells. Note that the absolute amount of kinase used was not usually a critical parameter, because the desired information related to specificity of the kinase not its absolute activity, and robustness of the assay depends on comparisons of the same amount of kinase on different peptides. The combination of kinase concentration and assay duration was modified to assure that the stoichiometry of peptide phosphorylation never exceeded 5%. The choice of kinase buffer depended on the kinase being analyzed. For studies of PKC, 100 mM HEPES, 0.05% Triton-X100, 1 mM CaCl2, 20 mM MgCl2, 0.2 mg/ml phosphatidyl serine (Avanti Polar Lipids), PMA 100 ng/ml was typically used. The lipid stock was prepared by transferring 3 mg phosphatidyl serine into iced mixture of 450 μl water plus 50 μl of 10% Triton-X100, sonicating 10 times on ice for 1 sec each.
The kinase reaction mixture was assembled by sequential addition to a tube held on ice of: 5 μl peptide (100 μM for final concentration of 10 μM), 15 μl of kinase (typically 5 ng/well, in appropriate kinase buffer), 30 μl of ATP (1 uCi/well of ^32P-gamma ATP in a stock of 167 μM cold ATP in the kinase buffer; for final concentration for 100 μM ATP). The mixture was rapidly warmed to desired reaction temperature (30° C. for PKC) and incubated for the desired duration (usually 10 minutes). The kinase assay was terminated by transfer to 4° C. water batch, and rapid addition of an equal volume (50 μl) of stop solution [0.1M ATP+0.1M EDTA in water, pH 8].
The peptides were then captured from the reaction mixture by transfer to a Reacti-Bind Streptavidin High Binding Capacity Coated Plates (HBC) (Pierce Biotechnology) as follows. The HBC plates were pre-rinsed three times with PBS/Tween PBS/Tween20 0.05% (PBS/Tween). Part of all of the reaction mixture was then transferred wells of a HBC plate pre-filled with 90 μl of phosphate-buffered saline (PBS); typically each aliquots of each phosphorylation reaction were transferred to duplicate HBC plates to assure accuracy by additional replication
For kinase assays done at the standard peptide concentration of 10 μM, the peptide concentration in the reaction mixture becomes 5 μM after addition of the stop solution; consequently 10 μl of the reaction (50 pMoles of peptide) was transferred to the HBC plate. More generally, the amount of reaction mixture transferred was estimated to be about 50 pMoles of peptide. […] The HBC plates were incubated for 0.5 to 1.5 hr at room temperature for complete binding of biotinylated peptides to plate-bound streptavidin. The HBC plates were then washed extensively with PBS/Tween. Five washes were done routinely and additional wash steps were added if the wash solution removed from the plate had measurable radioactivity as detected using a Geiger counter. This step is essential to obtaining a good the signal to noise ratio because the fraction of radioactivity incorporated in the peptides was a tiny fraction of the total in the reaction mixture. The wells were air-dried. A volume of 40-50 μl of microScint-20 (Packard Instruments) was added to each well. The plates were covered with stick-on film sheet. Radioactive emissions were measured in a TopCount NXT Microplate Scintillation and Luminescence Counter (Packard Instruments). Typically samples were counted for 5 minutes (or more) to improve the signal to noise ratio when counts were low. […]

PKC-epsilon = target: T2, PKC-epsilon (Homo sapiens, UniProt Q02156); test: In vitro kinase assay: peptide phosphorylation by PKC-epsilon; details: for PKC-epsilon phosphorylation: normalized to best substrate; for phosphorylation by PKC epsilon: peptide concentration 1 uM
T2 construct: purchased Calbiochem
T2 sequence (Q02156 1-737): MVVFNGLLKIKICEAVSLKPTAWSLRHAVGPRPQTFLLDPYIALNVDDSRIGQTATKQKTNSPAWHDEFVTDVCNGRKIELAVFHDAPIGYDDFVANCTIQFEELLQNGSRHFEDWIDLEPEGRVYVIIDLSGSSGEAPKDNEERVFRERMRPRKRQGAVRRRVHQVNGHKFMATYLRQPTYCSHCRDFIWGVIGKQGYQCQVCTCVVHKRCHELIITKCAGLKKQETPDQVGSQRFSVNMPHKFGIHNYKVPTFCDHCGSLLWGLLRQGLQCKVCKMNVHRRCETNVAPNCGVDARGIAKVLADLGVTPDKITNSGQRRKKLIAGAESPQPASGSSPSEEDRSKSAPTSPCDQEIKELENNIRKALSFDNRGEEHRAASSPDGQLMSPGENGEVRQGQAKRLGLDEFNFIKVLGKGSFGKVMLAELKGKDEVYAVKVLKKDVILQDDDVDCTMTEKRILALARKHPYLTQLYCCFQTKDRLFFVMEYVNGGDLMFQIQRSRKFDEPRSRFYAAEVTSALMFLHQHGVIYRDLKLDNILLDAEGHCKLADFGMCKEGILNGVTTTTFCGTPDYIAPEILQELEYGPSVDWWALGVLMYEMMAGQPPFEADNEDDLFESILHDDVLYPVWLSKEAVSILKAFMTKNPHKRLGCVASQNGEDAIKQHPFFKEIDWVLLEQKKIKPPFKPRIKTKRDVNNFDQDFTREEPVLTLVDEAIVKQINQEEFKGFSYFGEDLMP
Summary of the method: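 Active PKC-epsilon (5-20 ng per well) phosphorylated biotinylated peptides in duplicate at 30° C. for about 10 minutes. The PKC buffer was 100 mM HEPES, 0.05% Triton-X100, 1 mM CaCl2, 20 mM MgCl2, 0.2 mg/ml phosphatidyl serine and PMA 100 ng/ml, with 100 μM ATP including ^32P-gamma ATP. Peptides were captured on streptavidin plates, washed, and counted by scintillation, with stoichiometry kept below 5%.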

PKC-zeta = target: T3, PKC-zeta (Homo sapiens, UniProt Q05513); test: In vitro kinase assay: peptide phosphorylation by PKC-zeta; details: for PKC-zeta phosphorylation: normalized to best substrate
T3 construct: purchased Calbiochem
T3 sequence (Q05513 1-592): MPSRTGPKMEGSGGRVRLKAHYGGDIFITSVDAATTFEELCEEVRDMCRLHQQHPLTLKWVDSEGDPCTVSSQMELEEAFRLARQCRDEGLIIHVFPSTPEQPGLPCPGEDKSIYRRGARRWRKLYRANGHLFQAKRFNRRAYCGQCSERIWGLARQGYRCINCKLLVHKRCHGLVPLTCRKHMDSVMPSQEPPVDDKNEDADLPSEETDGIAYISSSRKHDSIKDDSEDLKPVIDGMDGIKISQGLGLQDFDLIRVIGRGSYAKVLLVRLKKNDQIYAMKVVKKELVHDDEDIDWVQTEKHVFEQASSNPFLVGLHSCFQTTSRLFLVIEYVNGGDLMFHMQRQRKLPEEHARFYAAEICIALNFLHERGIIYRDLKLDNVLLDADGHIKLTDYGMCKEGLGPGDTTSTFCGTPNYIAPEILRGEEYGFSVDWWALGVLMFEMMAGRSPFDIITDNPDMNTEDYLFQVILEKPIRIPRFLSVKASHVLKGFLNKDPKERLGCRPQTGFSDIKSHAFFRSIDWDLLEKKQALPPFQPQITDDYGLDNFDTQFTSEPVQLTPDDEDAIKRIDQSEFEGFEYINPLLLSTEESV

PKC-alpha = target: T4, PKC-alpha (Homo sapiens, UniProt P17252); test: In vitro kinase assay: peptide phosphorylation by PKC-alpha; details: for PKC alpha phosphorylation: normalized to best substrate
T4 construct: purchased Calbiochem
Summary of the method: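 Purified active human PKC-alpha, 5-20 ng per well, phosphorylated biotinylated peptides in duplicate wells with 100 μM ATP including 1 uCi/well of ^32P-gamma ATP. The buffer was 100 mM HEPES, 0.05% Triton-X100, 1 mM CaCl2, 20 mM MgCl2, 0.2 mg/ml phosphatidyl serine and PMA 100 ng/ml. Reactions ran at 30° C., usually for 10 minutes, keeping stoichiometry under 5%. They were stopped with ATP/EDTA, captured on streptavidin plates, washed, and counted by scintillation.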

T1 sequence (P31749 whole entry, species assumed): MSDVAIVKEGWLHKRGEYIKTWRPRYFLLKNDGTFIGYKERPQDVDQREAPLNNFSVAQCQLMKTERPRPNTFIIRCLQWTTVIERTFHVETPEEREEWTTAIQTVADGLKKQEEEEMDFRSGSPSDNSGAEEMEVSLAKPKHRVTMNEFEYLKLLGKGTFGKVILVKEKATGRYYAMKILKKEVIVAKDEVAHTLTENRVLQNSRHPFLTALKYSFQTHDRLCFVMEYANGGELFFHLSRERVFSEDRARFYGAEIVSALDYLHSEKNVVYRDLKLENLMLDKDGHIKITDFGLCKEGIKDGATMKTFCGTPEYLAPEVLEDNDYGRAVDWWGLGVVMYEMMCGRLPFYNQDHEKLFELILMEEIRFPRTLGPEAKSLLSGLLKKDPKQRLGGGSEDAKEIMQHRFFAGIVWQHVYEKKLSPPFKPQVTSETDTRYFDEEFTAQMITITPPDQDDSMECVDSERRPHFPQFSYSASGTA

Substance	AKT1 phosphorylation (AKT1)	PKC-epsilon phosphorylation (PKC-epsilon)	PKC-zeta phosphorylation (PKC-zeta)	PKC alpha phosphorylation (PKC-alpha)	phosphorylation by PKC epsilon (PKC-epsilon)	phosphorylation by PKC zeta (PKC-zeta; peptide concentration 1 uM)	phosphorylation by PKC zeta (PKC-zeta; peptide concentration 10 uM)	phosphorylation by PKC alpha (PKC-alpha; peptide concentration 1 uM)	phosphorylation by PKC alpha (PKC-alpha; peptide concentration 10 uM)
98 (AGPLRKSSLKKGGRL) [compound 98]	7%	34%	4%	25%	–	–	–	–	–
81 (KRERKTSSKSSVRKRR) [compound 81]	9%	59%	10%	62%	–	–	–	–	–
153 (TYLLPDKSRQGKRKTSIKRD) [compound 153]	–	–	–	–	24	6	13	17	22
151 (PQNSLKASNRKKKRTSFKRK) [compound 151]	–	–	–	–	24	15	28	17	16
148 (RELEQLKAEYLERRASRRRA) [compound 148]	–	–	–	–	33	20	20	19	22
150 (VDPFYEMLAARKKRISVKKK) [compound 150]	–	–	–	–	20	3	6	12	11
87 (RQGKRKTSIKRDTVNPL) [compound 87]	7%	31%	3%	46%	–	–	–	–	–
152 (DLIEGRKGAQIVKRASLKRG) [compound 152]	–	–	–	–	25	4	9	13	12
88 (KKPFKLSGLSFKRNRKE) [compound 88]	10%	44%	4%	48%	–	–	–	–	–
149 (RVVQSVKHTKRKSSTVMK) [compound 149]	–	–	–	–	27	3	5	33	52
97 (KKRSSKKEASMKKVVRP) [compound 97]	10%	16%	1%	37%	–	–	–	–	–
91 (VHYTSKDTLRKRHYWR) [compound 91]	5%	49%	12%	60%	–	–	–	–	–
